Patent US20210070872A1 (AGENUS, published 2021)

Key:
[1] = molecular target: T1, human GITR D60A mutant on 1624-5 cells (human, UniProt Q9Y5U5 26-241); assay: flow cytometry on 1624-5 cells, 2 µg/ml, MFI ratio to polyclonal antibody
T1 chain: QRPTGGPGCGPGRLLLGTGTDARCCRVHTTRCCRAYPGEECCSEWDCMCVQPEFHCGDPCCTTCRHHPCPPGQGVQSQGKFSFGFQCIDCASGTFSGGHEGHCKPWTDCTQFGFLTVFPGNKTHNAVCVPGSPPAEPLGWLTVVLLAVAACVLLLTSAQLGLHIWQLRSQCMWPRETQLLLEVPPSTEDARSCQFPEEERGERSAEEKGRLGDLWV
Experimental: (§1) An average MFI ratio (“AMFI ratio”) was calculated based on the individual MFI ratios for all the mutants. FIG. 34A is a table summarizing the binding of Hum231#2, three germline variants (pab1967, pab1975 and pab1979) and the reference antibody m6C8 to1624-5 cells expressing human GITR alanine mutants. An individual MFI ratio that is above 60% of the AMFI ratio is considered to indicate similar binding, after normalization, of that of the polyclonal antibody and is represented by “+” in FIG. 34A. An individual MFI ratio that is between 30% and 60% of the AMFI ratio is represented by “+/−” in FIG. 34A. An individual MFI ratio that is below 30% of the AMFI ratio is represented by “−” in FIG. 34A.
(§2) All the mean fluorescence intensity (MFI) values were calculated as the mean of two measurements. […] The percentage of binding of an antibody to the GITR alanine mutants relative to the wild type GITR was calculated by dividing a particular MFI ratio for the GITR alanine mutants by the corresponding MFI ratio for the wild type (e.g., dividing MFI ratio_{Hum231#2, D60A} by MFI ratio_{Hum231#2, WT}). The percentage of reduction in binding was determined by calculating, e.g., 100%*(1−(MFI ratio_{Hum231#2, D60A}/MFI ratio_{Hum231#2, WT})).

[2] = molecular target: T2, human GITR G63A mutant on 1624-5 cells (human, UniProt Q9Y5U5 26-241); assay: as above
T2 chain: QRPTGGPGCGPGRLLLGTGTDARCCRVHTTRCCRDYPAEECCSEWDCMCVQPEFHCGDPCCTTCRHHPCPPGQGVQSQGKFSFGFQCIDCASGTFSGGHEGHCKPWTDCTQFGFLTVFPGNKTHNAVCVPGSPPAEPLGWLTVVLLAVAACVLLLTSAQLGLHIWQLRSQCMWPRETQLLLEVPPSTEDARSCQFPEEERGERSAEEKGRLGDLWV
Experimental: as §1, §2

[3] = molecular target: T3, V1M cynomolgus GITR on 1624-5 cells (cynomolgus monkey, UniProt Q9Y5U5 26-241 (human entry)); assay: flow cytometry on 1624-5 cells
T3 chain: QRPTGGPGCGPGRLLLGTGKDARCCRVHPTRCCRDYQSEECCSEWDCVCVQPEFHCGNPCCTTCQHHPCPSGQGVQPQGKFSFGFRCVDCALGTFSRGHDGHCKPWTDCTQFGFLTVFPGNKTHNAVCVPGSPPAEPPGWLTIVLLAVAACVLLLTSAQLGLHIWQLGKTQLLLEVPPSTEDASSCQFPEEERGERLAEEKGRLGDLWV

[4] = molecular target: T4, V1M/Q62P/S63G cynomolgus GITR on 1624-5 cells (cynomolgus monkey, UniProt Q9Y5U5 26-241 (human entry)); assay: flow cytometry on 1624-5 cells, 2 µg/ml
T4 construct: also called mutant cynomolgus GITR V1M/Q62P/S63G
T4 chain: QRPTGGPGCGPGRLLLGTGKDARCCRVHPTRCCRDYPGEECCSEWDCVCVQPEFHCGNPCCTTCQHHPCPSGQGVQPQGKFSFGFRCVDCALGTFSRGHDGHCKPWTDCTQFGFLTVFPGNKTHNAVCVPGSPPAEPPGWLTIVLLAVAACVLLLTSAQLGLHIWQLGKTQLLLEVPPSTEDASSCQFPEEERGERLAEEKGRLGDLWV

[5] = molecular target: T5, GITR antigen (R&D systems, di-sulfide-linked homodimer; 689-GR) (human, UniProt Q9Y5U5 26-161); assay: SPR (BIAcore T100/T200), antibody captured via anti-human Fab, GITR antigen 40/10/2.5 nM, 1:1 model
T5 construct: Bought
T5 sequence: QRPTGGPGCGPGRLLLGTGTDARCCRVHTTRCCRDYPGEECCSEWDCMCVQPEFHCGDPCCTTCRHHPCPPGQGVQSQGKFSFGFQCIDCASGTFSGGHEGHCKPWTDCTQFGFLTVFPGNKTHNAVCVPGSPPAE
Experimental: All interactions were analyzed at 25° C. using 1× DPBS (PAA, H15-002) plus P20 (0.05%, Pierce, 28320) as running buffer. Anti-GITR antibodies (8 μg/ml in running buffer) were captured to the chip surface of a CM5 sensor chip (GE Healthcare, Series S CM5, BR-1005-30) via an immobilized anti-human Fab antibody (GE Healthcare, Fab Capture Kit, 28958325). To detect unspecific interactions of the GITR antigen, antibody capture was only performed in flow cell 2, whereas in flow cell 1 only the capturing antibody was immobilized. In addition, an unrelated antibody (anti-IL-1β; SK48E26; International Publication No. WO 95/001997) was used to assess specificity of GITR binding. After capture of the anti-GITR antibodies GITR antigen (R&D systems, di-sulfide-linked homodimer; 689-GR) was run through both flow cells in different amounts (40 nM, 10 nM and 2.5 nM) for each antibody. Also a blank curve (running buffer only) was included in each run. Association was run for 90 s and dissociation for 600 s with a flow rate of 10 μl/min. After each run a regeneration step was performed with 10 mM Glycine pH2.0 (GE Healthcare, BR-1003-55) for 60 s with 30 μl/min. Binding curves were evaluated using BIAcore® T200 evaluation software version 2.0.1 applying a Langmuir 1:1 model with global fit of Rmax.

B1: Hum231#2 (antibody, human IgG1, V domains shown)
VH: QVQLVQSGAEVKKPGASVKVSCKGSGYTFTDYAMYWVRQAPGQGLEWIGVIRTYSGDVTYNQKFKDRATMTVDKSISTAYMELSRLRSDDTAVYYCAKSGTVRGFAYWGQGTLVTVSS
VL: DIVMTQSPDSLAVSLGERATINCKSSQSLLNSGNQKNYLTWYQQKPGQPPKLLIYWASTRESGVPDRFSGSGSGTDFTLTISSLQAEDVAVYHCQNDYSYPYTFGQGTKLEIKR
notes: Human IgG1 with T109S (Kabat) in the light chain constant domain; also called humanized variant Hum231#2 (IGHV1-2*02 and IGK4-1*01)
With B1 the “percent reduction in binding relative to wild type human GITR” value [1] was 88%, the “percent reduction in binding relative to wild type human GITR” value [2] was 59% and the binding result [3] was “no binding (tested: 2 µg/ml)”. For the same binder, the binding result [4] was “binds”, the Kd [5] was 0.629 nM and the koff [5] was 0.00178 s⁻¹. The kon [5] was 2.83e+06 M⁻¹ s⁻¹.
